From article PMC3325211, “Mutations in MITF and PAX3 Cause “Splashed White” and Other White Spotting Phenotypes in Horses”

Target: MITF wild-type (DNA-binding fragment) (UniProt Q95MD1 112-207)
Assay: EMSA; 5 mM MgCl2; 20 mM Tris, 50 mM NaCl, 5 mM MgCl2, 1 mM DTT, 33 ug/ml BSA, pH 7.4, on ice 30 min; 6% native PAGE in 0.5x TBE
Conditions: protein: recombinant; (Ni-NTA purified); chain copies: 2; label: radioactive label

Chain of MITF wild-type (DNA-binding fragment) (Q95MD1 entry or part of it): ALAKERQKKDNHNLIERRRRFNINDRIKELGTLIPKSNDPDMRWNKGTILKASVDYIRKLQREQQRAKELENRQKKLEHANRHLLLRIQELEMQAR

B1: M-box oligonucleotide (dsDNA)
DNA 1: GGAAAGTTAGTCATGTGCTTTTCAGAAGA
DNA 2: TCTTCTGAAAAGCACATGACTAACTTTCC
binding result: binds
